Substitutions are numbered along the chain they refer to. Numbers in names are those of the source. Entries after “also recorded” stand apart in the source; their conditions may differ. Values belong to the molecule of their own block, whether it stands above or below them. Where no end group is shown, it is not given here. The star is where a group is joined. EDANS = O=S(=O)(O)c1cccc2c(NCCN*)cccc12
What was measured:
[1] = tested on: fibronectin; test: Retention linker peptide binding to fibronectin-coated beads; settings: peptides 20 uM
Procedure: (§1) A series of peptides comprising an MMP cleavable site with or without the addition of a tumor retention sequence were synthesized and conjugated to the fluorophore EDANS (5-((2-Aminoethyl)amino)naphthalene-1-sulfonic acid) (custom synthesis, ThermoFisher). […] These peptides were then tested for their ability to bind ECM proteins such as heparin, fibronectin and collagen which are found in abundance in the tumor stroma.
(§2) For fibronectin and collagen binding assays, streptavidin coupled magnetic beads (Mag Sepharose, Cytiva and Dynabeads, ThermoFisher, respectively) were first incubated with biotin-labelled fibronectin (Cytoskeleton) or biotin-labelled collagen IV (Prospec) for 1 Hr with gentle shaking. Following multiple washes, the ECM-coated beads were then incubated with Edans Peptides (20 uM) for 2 hours at room temperature with shaking in neutral or acidic binding buffer. Beads were then washed and resuspended in 100 uL of binding buffer in a black 96-well plate. Peptide binding was quantified by measuring the fluorescence of samples using excitation/emission spectra of EDANS (Ex 340/Em 490).

[2] = tested on: Heparan sulfate proteoglycans; settings: DTx protein derived; Note 1; cited from earlier work
[3] = tested on: collagen IV; test: Retention linker peptide binding to collagen IV-coated beads; settings: peptides 20 uM, 2 hours
Procedure: as §1, §2

[4] = tested on: MC38 tumor; test: Intra-tumoral injection in syngeneic MC38 colorectal cancer model; type: in vivo, mice
Procedure: Tumors and body weights were measured twice a week for the duration of the study. Tumor volumes were calculated using the following equation: (longest diameter*shortest diameter^2)/2.

[5] = tested on: CTLL-2 cells; test: CTLL-2 proliferation assay (MTT); type: cell-based
Procedure: (§3) Recombinant MMP9 and/or MMP2 (R&D Systems) was first activated with p-aminophenylmercuric acetate and this activated protease or equivalent amount of activating solution without the protease was used to digest or mock digest the fusion protein for 1 hr, 2 hr, 4 hr and overnight (18-22 hr) at 37 C. Cleavage assays are set up in TCNB buffer: 50 mM Tris, 10 mM CaCl2), 150 mM NaCl, 0.05% Brij-35 (w/v), pH 7.5. Digested protein was aliquoted and stored at −80° C. prior to testing. Aliquots of digests were subsequently analyzed by SDS-PAGE followed by Western blotting to evaluate the extent of cleavage. Digests were also assessed in functional assays such as CTLL-2 proliferation and HEK-Blue Interleukin reporter assays. As shown in FIGS. 2A-E, essentially complete cleavage by MMP9 protease of the fusion proteins with functional site is seen after overnight incubation. In contrast, proteins containing a scrambled MMP cleavage site are not cut (FIG. 2E).
IL-2 activity was measured using either CTLL-2 cells (ATCC) or the reporter cell line HEK Blue IL2 (Invivogen, San Diego). In brief, for the CTLL-2 assay a titration of untreated and digested samples is added to 40 000 CTLL-2 cells per well in 100 ul medium in a 96-well plate and incubated at 37C in 5% CO2 for 18-22 hr. At the end of this period, 50ug/well Thiazolyl Blue Tetrazolium Bromide (MTT) (Sigma-Aldrich) was added and the plate was incubated for 5 hr at 37C in 5% CO2. Cells were lysed with 100 µl/well 10% SDS (Sigma) acidified with HCl, incubated at 37C for 4 hr, and absorbance was read at 570 nm. Recombinant human or mouse IL-2 (Peprotech and R&D systems respectively) was used as a positive control. FIGS. 3A-B, 3K-L and 3N-P show examples of untreated and digested fusion proteins evaluated in CTLL-2 proliferation assay.

[6] = target: T1, MMP9 (Mus musculus, UniProt P41245); test: Cleavage of fusion protein by MMP9 protease (SDS-PAGE / Western blot); type: biochemical
T1 construct: purchased R&D Systems
T1 sequence (P41245 108-730): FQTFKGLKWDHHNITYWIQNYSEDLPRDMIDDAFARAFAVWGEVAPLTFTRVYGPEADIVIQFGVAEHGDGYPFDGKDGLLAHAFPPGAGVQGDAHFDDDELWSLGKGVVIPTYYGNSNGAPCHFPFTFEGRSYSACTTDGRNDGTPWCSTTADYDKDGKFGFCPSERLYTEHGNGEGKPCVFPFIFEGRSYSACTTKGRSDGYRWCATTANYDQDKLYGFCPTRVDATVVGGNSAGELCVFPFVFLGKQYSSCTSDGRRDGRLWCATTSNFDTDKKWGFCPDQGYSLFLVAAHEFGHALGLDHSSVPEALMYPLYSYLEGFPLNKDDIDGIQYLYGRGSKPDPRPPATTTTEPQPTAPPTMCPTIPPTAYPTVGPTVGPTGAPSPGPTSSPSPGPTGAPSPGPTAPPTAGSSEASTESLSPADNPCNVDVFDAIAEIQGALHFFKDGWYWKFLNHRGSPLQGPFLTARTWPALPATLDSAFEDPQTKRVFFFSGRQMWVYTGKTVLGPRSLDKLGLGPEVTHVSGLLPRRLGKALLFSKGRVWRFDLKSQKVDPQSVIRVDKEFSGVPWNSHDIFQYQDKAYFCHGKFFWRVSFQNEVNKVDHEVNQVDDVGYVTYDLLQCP
Procedure: as §3
Untreated and digested fusion proteins were evaluated for cleavage products by Western blot. The following monoclonal antibodies were used: rat anti-mouse IL-2 antibody (JES6-1A12; ThermoFisher), goat anti-mouse IL-2 polyclonal antibody (AF-402-NA; R&D systems), mouse anti-6xHis monoclonal antibody (MA1-21315, ThermoFisher), Anti-mIgG Fc HRP conjugated (ThermoFisher cat #A16084), and Anti-human IL2 antibody (Invitrogen, cat #MA5-17097, mouse IgG1). Detection was performed using either a goat anti-rat HRP-conjugated antibody, Donkey Anti-goat HRP-conjugated antibody or Goat Anti-mouse HIRP conjugated (Jackson Immuno Research, West Grove, PA) and developed using the SuperSignal West Femto Maximum sensitivity detection reagent (ThermoFisher) following the manufacturer's recommendations.

[7] = tested on: EMT6 tumor; settings: mouse, in vivo, iv, 8 mg/kg
Text: We assessed the levels of IL-2 fusion proteins present in tumors in vivo by utilizing fluorescently labelled proteins and real-time whole-body imaging. Non-cleavable Construct GGG and Construct DD were conjugated to Dylight 650 probe according to the manufacturer's protocol (Dylight 650 Antibody labeling kit, ThermoFisher). […] BALB/c mice were subcutaneously inoculated with EMT6 breast cancer syngeneic model and when the average tumor volume reached 240 mm^3, animals were randomized into 3 groups based on tumor volumes (n=2 mice per treatment group).
Following a single dose of the labeled IL-2 fusion proteins to tumor-bearing mice, fluorescent images (excitation 640/emission 680 consistent with Dylight 650 probe ex/em spectra) were captured over 96 hrs on an IVIS system (PerkinElmer, IVIS Lumina Series III) and are shown in FIG. 15A. The fluorescence intensity in tumor area was quantified across the groups, average background tumor fluorescence (group 1) was subtracted from group 2 and 3 values at each time-point, and data was normalized to the initial fluorescence intensity of same amount of each labeled protein.

[8] = target: collagen (agarose cross-linked to collagen, Sigma); test: pulldown on collagen-agarose beads, anti-mouse IL-2 immunoblot, bound fraction normalized to Construct B
[9] = target: collagen (agarose cross-linked to collagen, Sigma); test: pulldown on collagen-agarose beads, anti-mouse IL-2 immunoblot, band quantified with iBright
[10] = target: collagen cross-linked to agarose (Sigma); test: pulldown with collagen-agarose beads, anti-mouse IL-2 immunoblot quantified with iBright imaging system

binding to fibronectin at pH6 vs pH 7.5 [1]: enhanced binding at pH6 | binding to fibronectin ([1]; 2 hours): able to bind fibronectin
Molecule: peptide 13: EDANS-conjugated MMP linker peptide with GPLGVRG site; retention motif target pH dependent fibronectin (GGGWSHWGPLGVRG-{EDANS}; also: EDANS fluorophore conjugated at 3' end)

binding to collagen IV [3]: binds to a lesser extent
Molecule: peptide 15: EDANS-conjugated MMP linker peptide GGGSG...; retention motif target Collagen I (GGGSGLHERHLNNN-{EDANS}; also: EDANS fluorophore conjugated at 3' end)

binding to collagen IV [3]: strongly binds collagen IV
Molecule: peptide 14: EDANS-conjugated MMP linker peptide with GPLGVRG site; retention motif target Collagen IV (KLWVLPKGPLGVRG-{EDANS}; also: EDANS fluorophore conjugated at 3' end)

Normalized (fold (relative to Construct B)) [8]: 1.4 | Bound [9]: 2280 | Bound (% input) [9]: 0.4%
B4: Construct II (Fc fusion)
chain: APTSSSTSSSTAEAQQQQQQQQQQQQHLEQLLMDLQELLSRMENYRNLKLPRMLTFKFYLPKQATELKDLQCLEDELGPLRHVLDLTQSKSFQLEDAENFISNIRVTVVKLKGSDNTFECQFDDESATVVDFLRRWIAFCQSIISTSPQSLHERHLNNNGPLGVRGGGGGSGGGGSELCLYDPPEVPNATFKALSYKNGTILNCECKRGFRRLKELVYMRCLGNSWSSNCQCTSNSHDKSRKQVTAQLEHQKEQQTTTDMQKPTQSMHQENLTGHCREPPPWKHEDSKRIYHFVEGQSVHYECIPGYKALQRGPAISICKMKCGKTGWTQPQLTCVDEREHHRFLASEESQGSRNSSPESETSCPITTTDFPQPTETTAMTETFVLTMEYKGCKPCICTVPEVSSVFIFPPKPKDVLTITLTPKVTCVVVDISKDDPEVQFSWFVDDVEVHTAQTQPREEQFNSTFRSVSELPIMHQDWLNGKEFKCRVNSAAFPAPIEKTISKTKGRPKAPQVYTIPPPKEQMAKDKVSLTCMITDFFPEDITVEWQWNGQPAENYKNTQPIMDTDGSYFVYSKLNVQKSNWEAGNTFTCSVLHEGLHNHHTEKSLSHSPGK

fraction bound (% of input) [10]: < 1 % of input
B6: Construct II: m IL2-…-MMPcs1-2x(G4S)-mIL2Ra(1-215)-mu IgG1 Fc (Fc fusion)
chain: B4 chain

More lines, now with the values behind:

Molecule: 640 (DVIRDKTKTKIESLK) [Construct 640]
binds to HSGP, affinity [2]: binds to HSGP with low affinity (DTx protein)

Molecule: 639 (NGRKIRMRCRAIDGD) [Construct 639]
binds to HSGP, affinity [2]: binds to HSGP with high affinity (DTx protein)

B1: Construct A: SEQ ID NO 100: mIL2-2x(SG4)-MMPcs1-2x(G4S)-IL2Ralpha-6His (protein)
chain: APTSSSTSSSTAEAQQQQQQQQQQQQHLEQLLMDLQELLSRMENYRNLKLPRMLTFKFYLPKQATELKDLQCLEDELGPLRHVLDLTQSKSFQLEDAENFISNIRVTVVKLKGSDNTFECQFDDESATVVDFLRRWIAFCQSIISTSPQSGGGGSGGGGGPLGVRGGGGGSGGGGSELCLYDPPEVPNATFKALSYKNGTILNCECKRGFRRLKELVYMRCLGNSWSSNCQCTSNSHDKSRKQVTAQLEHQKEQQTTTDMQKPTQSMHQENLTGHCREPPPWKHEDSKRIYHFVEGQSVHYECIPGYKALQRGPAISICKMKCGKTGWTQPQLTCVDEREHHRFLASEESQGSRNSSPESETSCPITTTDFPQPTETTAMTETFVLTMEYKHHHHHH
anti-tumor activity ([4]; daily intra-tumoral injection, 10 injections, Construct A 70ug/day, r hIL2 5 ug/day): substantially inhibited tumor growth; also recorded: complete elimination of tumor | tumor establishment after re-challenge with MC38 cells ([4]; re-inoculated on Day 40, a month after re-challenge): Tumor growth was rejected; also recorded: no tumor mass was established | greater activity of MMP-9 treated than untreated construct (EC50 comparison) ([5]; CTLL-2 proliferation): 10 fold | CTLL-2 cell proliferation, MMP-9 treated construct ([5]; cleaved by MMP-9): stimulates CTLL-2 cell proliferation in a dose dependent manner | time at which cleavage product was detectable ([6]; +MMP-9 digestion, Western blot): 1 h | full-length cytokine prodrug remaining ([6]; overnight +MMP time point): substantially undetectable

B2: Construct DD: SEQ ID NO 814: m IL2-2x(GHHPH)-MMPscr-2x(G4S)-mIL2Ra(1-215)-mu IgG1 Fc (protein)
chain: APTSSSTSSSTAEAQQQQQQQQQQQQHLEQLLMDLQELLSRMENYRNLKLPRMLTFKFYLPKQATELKDLQCLEDELGPLRHVLDLTQSKSFQLEDAENFISNIRVTVVKLKGSDNTFECQFDDESATVVDFLRRWIAFCQSIISTSPQGHHPHGHHPHGVRLGPGGGGGSGGGGSELCLYDPPEVPNATFKALSYKNGTILNCECKRGFRRLKELVYMRCLGNSWSSNCQCTSNSHDKSRKQVTAQLEHQKEQQTTTDMQKPTQSMHQENLTGHCREPPPWKHEDSKRIYHFVEGQSVHYECIPGYKALQRGPAISICKMKCGKTGWTQPQLTCVDEREHHRFLASEESQGSRNSSPESETSCPITTTDFPQPTETTAMTETFVLTMEYKGCKPCICTVPEVSSVFIFPPKPKDVLTITLTPKVTCVVVDISKDDPEVQFSWFVDDVEVHTAQTQPREEQFNSTFRSVSELPIMHQDWLNGKEFKCRVNSAAFPAPIEKTISKTKGRPKAPQVYTIPPPKEQMAKDKVSLTCMITDFFPEDITVEWQWNGQPAENYKNTQPIMDTDGSYFVYSKLNVQKSNWEAGNTFTCSVLHEGLHNHHTEKSLSHSPGK
tumor-associated fluorescence relative to Construct GGG [7]: roughly 2 fold

B3: Construct GG (Fc fusion)
chain: B4 chain with L151G, H152G, E153K, R154L, H155W, L156V, N157L, N158P, N159K
Normalized (fold (relative to Construct B)) [8]: 2.5 | Bound [9]: 5190 | Bound (% input) [9]: 0.7%

B5: Construct GG: m IL2-SGG-KLWVLPK-MMPcs1-2x(G4S)-mIL2Ra(1-215)-mu IgG1 Fc (Fc fusion)
chain: B4 chain with L151G, H152G, E153K, R154L, H155W, L156V, N157L, N158P, N159K
fraction bound (% of input) [10]: < 1 % of input

Reference: patent US20240043489A1, “Cytokine Prodrugs Comprising a Cleavable Linker” (Trutino Biosciences Inc., priority 2020, published 2024)
